The record followed here is patent US20260176307A1 (VECTORY THERAPEUTICS B V, published 2026).

Where a chain is given by its changes, count along the chain named.

T1: non-phosphorylated C-terminal TDP-43 peptide NAGSGSGFNGGFGSSMDSKSSGWGM (human, N-terminally biotinylated)
T1 construct: Synthetic biotinylated peptide captured on streptavidin plates; also called non-phosphorylated TDP-43
T1 peptide: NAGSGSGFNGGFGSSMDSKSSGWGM

B1: anti-TDP43 clone O, full-length human IgG1 format (antibody, V domains shown)
VH: QVQLVQSGAEVKKPGASVKVSCKASGYTFTKYWMHWVRQAPGQGLEWMGEINPKNGRTNYNQKFQGRVTMTRDTSTSTVYMELSSLRSEDTAVYYCWRYMDYWGQGTLVTVSS
VL: DIVMTQSPLSLPVTPGEPASISCRSSQSLLHSNGYNYLDWYLQKPGQSPQLLIYKVSNRFSGVPDRFSGSGSGTDFTLKISRVEAEDVGVYYCLQHTHWPPTFGGGTKVEIK
notes: Tested as full-length human IgG1
B2: anti-TDP43 clone X, full-length human IgG1 format (antibody, V domains shown)
VH: B1 VH with K31S, Y32H, W33Y, M34L, E50I, K54S
VL: B1 VL with K55E
notes: as for B1
B3: anti-TDP43 clone C, full-length human IgG1 format (antibody, V domains shown)
VH: QVQLVQSGAEVKKPGASVKVSCKASGFTFTEYSMHWVRQAPGQGLEWMGGINPNNGGTSYNQKFQGRVTMTRDTSTSTVYMELSSLRSEDTAVYYCARESWGQGTLVTVSS
VL: DIVMTQSPLSLPVTPGEPASISCKSSQSLLHSDGKTYLNWYLQKPGQSPQLLIYLGSNRASGVPDRFSGSGSGTDFTLKISRVEAEDVGVYYCFQGTHFPHTFGGGTKVEIK
notes: as for B1
B4: anti-TDP43 clone G, full-length human IgG1 format (antibody, V domains shown)
VH: B3 VH with R98S
VL: B3 VL with G56V, N58K, R59L, A60K, F94M
notes: as for B1
B5: anti-TDP43 clone I, full-length human IgG1 format (antibody, V domains shown)
VH: B3 VH with S59I
VL: B3 VL with F94M
notes: as for B1
B6: anti-TDP43 clone S, scFv format (scFv)
scFv: QVQLVQSGAEVKKPGASVKVSCKASGYTFTKYWMHWVRQAPGQGLEWMGEINPSNGRTNYPQKFQGRVTMTRDTSTSTVYMELSSLRSEDTAVYYCWRYMDYWGQGTLVTVSSGGGGSGGGGSGGGGSDIVMTQSPLSLPVTPGEPASISCRSSQSLLHSNGYNYLDWYLQKPGQSPQLLIYKVSNRFTGVPDRFSGSGSGTDFTLKISRVEAEDVGVYYCMQHTHWPPAFGGGTKVEIK
notes: also called VecTab S (as AAV5.2-encoded scFv)
B7: anti-TDP43 clone X, scFv format (scFv)
scFv: B6 scFv with K31S, Y32H, W33Y, M34L, E50I, P61N, K183E, T189S, M222L, A230T
B8: anti-TDP43 clone C, scFv format (scFv)
scFv: QVQLVQSGAEVKKPGASVKVSCKASGFTFTEYSMHWVRQAPGQGLEWMGGINPNNGGTSYNQKFQGRVTMTRDTSTSTVYMELSSLRSEDTAVYYCARESWGQGTLVTVSSGGGGSGGGGSGGGGSDIVMTQSPLSLPVTPGEPASISCKSSQSLLHSDGKTYLNWYLQKPGQSPQLLIYLGSNRASGVPDRFSGSGSGTDFTLKISRVEAEDVGVYYCFQGTHFPHTFGGGTKVEIK
B9: anti-TDP43 clone I, scFv format (scFv)
scFv: B8 scFv with S59I, F220M
notes: also called VecTab I (as AAV5.2-encoded scFv)
B10: anti-TDP43 clone G, scFv format (scFv)
scFv: B8 scFv with R98S, G182V, N184K, R185L, A186K, F220M
notes: also called VecTab G (as AAV5.2-encoded scFv)
B11: anti-TDP43 clone B, scFv format (scFv)
scFv: B8 scFv with Y32L, G182A, N184R
notes: also called VecTab B (as AAV5.2-encoded scFv)

The target of the first test is T1, non-phosphorylated C-terminal TDP-43 …. The experiment in a line: ELISA, biotinylated peptide on streptavidin plate, IgG1 format, anti-human IgG1 HRP. Here is the method: (§1) The ability of clones to bind phosphorylated TDP-43 and/or non-phosphorylated TDP-43 was assessed using N-terminally biotinylated TDP-43 peptides having the following sequences: […] (SEQ ID NO: 218; non-phosphorylated); […] {PSER} SGWGM (SEQ ID NO: 219; phosphorylated S409); […] {PSER} GWGM (SEQ ID NO: 220; phosphorylated S410); and […] {PSER} {PSER} GWGM (SEQ ID NO: 221; phosphorylated S409/S410). Peptides were dissolved in 100% DMSO, aliquoted, and stored in −80° C. before use. Wells were incubated with 100 μL (5 μg/mL) of the peptides on streptavidin plates overnight at 4° C. The plates were then washed 3× in PBST wash buffer. Antibody clones B, C, G, I, O, S, U, and X, and non-binding controls (VRC07 for full-length IgG, and anti-methamphetamine clone 6H4 as control for the scFv experiments) were made in full-length human IgG₁ and scFv formats (IpA), and dilutions were prepared in blocking buffer (2% BSA). 100 μL/well of the dilutions were added to coated plates and the plates were incubated at RT for 1 hour. The plates were subsequently washed 3× with 250 μL/well wash buffer. 100 μL/well of primary antibody CEN63-C13 Rb-a-G4S (IpA) diluted in blocking buffer (2 μg/ml) was added and the plates were incubated for 1 hour at RT followed by 3× washing in PBST. For detection, 100 μL/well secondary antibodies (goat anti human IgG₁ HRP (Jackson ImmunoResearch) or goat anti-rabbit HRP for scFv (Promega)) diluted in blocking buffer (1:5000) was added to the wells and the plates were incubated for 1 hour at RT. The plates were subsequently washed 3× and 100 μL/well of TMB ready solution was added to the wells, followed by 3-4 minutes incubation in the dark. The reaction was stopped with 1M H₂SO₄ added to the wells (100 μL/well), and absorption measured on a GloMax plate reader (Promega) at […].
Background: In an ELISA, binding on a coated surface is turned into a signal by an enzyme label.
As for B1, the binding result is “binds”. The same measure, in the same setting: the entry for B2 is “binds”; for B3 it is “binds”; for B4 it is “binds”. In the case of B5, the binding result is listed as “binds”.

The next test has the same target. The experiment in a line: ELISA, biotinylated peptide on streptavidin plate, scFv format, rabbit anti-G4S and anti-rabbit HRP; profile referred to: less efficient at binding non-phosphorylated TDP-43. On the procedure: as §1, with “100 μL/well of primary antibody CEN63-C13 Rb-a-G4S (IpA) diluted in blocking buffer (2 μg/ml) was added and the plates were incubated for 1 hour at RT followed by 3× washing in PBST. For detection, 100 μL/well secondary antibodies (goat anti human IgG₁ HRP (Jackson ImmunoResearch) or goat anti-rabbit HRP for scFv (Promega)) diluted in blocking buffer (1:5000) was added to the wells and the plates were incubated for 1 hour at RT.” left out
As for B6, the binding result was “binds”. For B7, the binding result is “binds”.

Another test shares this target. As to the kind of experiment: ELISA, biotinylated peptide on streptavidin plate, scFv format, rabbit anti-G4S and anti-rabbit HRP. On the procedure:
as §1
For B8, the binding result was “binds”. For the molecule B9, the binding result is “binds”. With B10, the binding result is given as “binds”.

With B11, the binding result is “binds”.
